In US20120237518A1 one finds Kd, koff and kon data, which are given here for two substances.

The target of the test is recombinant human Trop-2/Fc/His fusion protein (manufactured by R&D) (human) (UniProt P09758). Description: SPR (Biacore T100), Trop-2/Fc/His captured by Tetra-His antibody on CM5 chip, antibody as analyte, Bivalent Analyte model, mean of duplicates.

The term koff denotes the rate constant with which the complex falls apart. As usually defined, the kon is a measure of how fast the partners come together.

Sequence of recombinant human Trop-2/Fc/His fusion protein (manufactured by R&D) (human) (P09758 27-274 limits assumed): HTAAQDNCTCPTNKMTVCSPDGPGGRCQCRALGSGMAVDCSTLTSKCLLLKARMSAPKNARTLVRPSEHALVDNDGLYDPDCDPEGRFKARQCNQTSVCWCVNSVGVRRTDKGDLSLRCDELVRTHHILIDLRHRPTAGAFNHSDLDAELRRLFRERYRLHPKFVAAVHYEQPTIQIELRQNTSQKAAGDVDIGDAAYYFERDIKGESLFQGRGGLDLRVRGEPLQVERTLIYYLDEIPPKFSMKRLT

As to “77220 (manufactured by R&D), anti-Trop-2 mouse monoclonal antibody”, the Kd worked out at 1.1 nM, the koff amounted to 0.00061 s⁻¹ and the kon came to 555000 M⁻¹ s⁻¹.

As for “MOv16 (manufactured by Alexis), anti-Trop-2 mouse monoclonal antibody”, the Kd is 0.929 nM, the koff worked out at 0.000184 s⁻¹ and the kon was found to be 183000 M⁻¹ s⁻¹.
